Publication PMC3913039

Target: recombinant 3x-FLAG-tagged human Sec61α, wild type (human) (UniProt P61619)
Assay: co-IP; Sf21 microsomes with FLAG-Sec61α and Sec61γ solubilised with 1% Deoxy BigChap, anti-FLAG immunoprecipitation, immunoblot beside canine microsomes

stoichiometry N: 1
Substance: recombinant untagged human Sec61γ (from UniProt P60059 1-68) (natural protein; other documents disagree on this pair)
